Test results taken from PMC10362042 (Nature Communications, 2023).
Values joined by “and” are separate entries in the source; they are usually repeats but may differ in a detail not shown here. Equal values may be shown once.

Assays:
Test in all cases: SPR
Settings in all cases: both partners purified
[1] = target: SARS-CoV-2 Omicron BA.4/5 RBD (residues 319-541) (SARS-CoV-2, UniProt P0DTC2 319-541)
[2] = target: SARS-CoV-2 Omicron BA.2 RBD (residues 319-541) (SARS-CoV-2, UniProt P0DTC2 319-541)
[3] = target: SARS-CoV-2 Omicron BA.1 RBD (residues 319-541) (SARS-CoV-2, UniProt P0DTC2 319-541)
[4] = target: T1, SARS-CoV-2 Omicron BA.2 RBD (residues 319-541) (SARS-CoV-2, UniProt P0DTC2 319-541); remark: listed apart in the source
[5] = target: T2, SARS-CoV-2 Omicron BA.1 RBD (residues 319-541) (SARS-CoV-2, UniProt P0DTC2 319-541); remark: listed apart in the source
[6] = target: T3, SARS-CoV-2 Omicron BA.4/5 RBD (residues 319-541) (SARS-CoV-2, UniProt P0DTC2 319-541); remark: listed apart in the source
[7] = target: T1, SARS-CoV-2 Omicron BA.2 RBD (residues …); remark: listed apart in the source
[8] = target: T2, SARS-CoV-2 Omicron BA.1 RBD (residues …); remark: listed apart in the source
[9] = target: T3, SARS-CoV-2 Omicron BA.4/5 RBD (residues …); remark: listed apart in the source

B1: Cat ACE2 (receptor)
chain: QSTTEELAKTFLEKFNHEAEELSYQSSLASWNYNTNITDENVQKMNEAGAKWSAFYEEQSKLAKTYPLAEIHNTTVKRQLQALQQSGSSVLSADKSQRLNTILNAMSTIYSTGKACNPNNPQECLLLEPGLDDIMENSKDYNERLWAWEGWRAEVGKQLRPLYEEYVALKNEMARANNYEDYGDYWRGDYEEEWTDGYNYSRSQLIKDVEHTFTQIKPLYQHLHAYVRAKLMDTYPSRISPTGCLPAHLLGDMWGRFWTNLYPLTVPFGQKPNIDVTDAMVNQSWDARRIFKEAEKFFVSVGLPNMTQGFWENSMLTEPGDSRKVVCHPTAWDLGKGDFRIKMCTKVTMDDFLTAHHEMGHIQYDMAYAVQPFLLRNGANEGFHEAVGEIMSLSAATPNHLKTIGLLSPGFSEDSETEINFLLKQALTIVGTLPFTYMLEKWRWMVFKGEIPKEQWMQKWWEMKREIVGVVEPVPHDETYCDPASLFHVANDYSFIRYYTRTIYQFQFQEALCRIAKHEGPLHKCDISNSSEAGKKLLQMLTLGKSKPWTLALEHVVGEKKMNVTPLLKYFEPLFTWLKEQNRNSFVGWNTDWRPYADQSIKVRISLKSALGDEAYEWNDNEMYLFRSSVAYAMREYFSKVKNQTIPFVEDNVWVSNLKPRISFNFFVTASKNVSDVIPRSEVEEAIRMSRSRINDAFRLDDNSLEFLGIQPTLSPPYQPPVT
[1]
  Kd: 149 nM (2×) and 166 nM and 155 nM
  koff: 0.069 s⁻¹ and 0.071 s⁻¹ and 0.079 s⁻¹
  kon: 470000 M⁻¹ s⁻¹ and 570000 M⁻¹ s⁻¹ and 380000 M⁻¹ s⁻¹
[2]
  Kd: 133 nM and 128 nM and 158 nM and 140 nM
  koff: 0.014 s⁻¹ and 0.036 s⁻¹ and 0.029 s⁻¹
  kon: 180000 M⁻¹ s⁻¹ and 200000 M⁻¹ s⁻¹ and 100000 M⁻¹ s⁻¹
[3]
  Kd: 60.8 nM and 78.5 nM and 65.2 nM and 68.2 nM
  kon: 2.8e+06 M⁻¹ s⁻¹ and 4.2e+06 M⁻¹ s⁻¹ and 2e+06 M⁻¹ s⁻¹

B2: Golden Hamster ACE2 (residues 1-615) (receptor)
chain: QSIIEEQAKTFLDKFNQEAEDLSYQSALASWNYNTNITEENAQKMNEAAAKWSAFYEEQSKLAKNYSLQEVQNLTIKRQLQALQQSGSSALSADKNKQLNTILNTMSTIYSTGKVCNPKNPQECLLLEPGLDDIMATSTDYNERLWAWEGWRAEVGKQLRPLYEEYVVLKNEMARANNYEDYGDYWRGDYEAEGADGYNYNGNQLIEDVERTFKEIKPLYEQLHAYVRTKLMNTYPSYISPTGCLPAHLLGDMWGRFWTNLYPLTVPFGQKPNIDVTDAMVNQGWNAERIFKEAEKFFVSVGLPYMTQGFWENSMLTDPGDDRKVVCHPTAWDLGKGDFRIKMCTKVTMDNFLTAHHEMGHIQYDMAYATQPFLLRNGANEGFHEAVGEIMSLSAATPEHLKSIGLLPSDFQEDNETEINFLLKQALTIVGTLPFTYMLEKWRWMVFKGDIPKEQWMEKWWEMKREIVGVVEPLPHDETYCDPAALFHVSNDYSFIRYYTRTIYQFQFQEALCQAAKHDGPLHKCDISNSTEAGQKLLNMLRLGKSEPWTLALENVVGARNMDVRPLLNYFEPLSVWLKEQNKNSFVGWNTDWSPYAD
[4]
  Kd: 174 nM and 106 nM and 167 nM and 149 nM
  koff: 0.86 s⁻¹ and 1 s⁻¹ and 0.75 s⁻¹
  kon: 2.5e+06 M⁻¹ s⁻¹ and 3e+06 M⁻¹ s⁻¹ and 2e+06 M⁻¹ s⁻¹
[5]
  Kd: 277 nM and 230 nM and 296 nM and 268 nM
[6]
  Kd: 118 nM and 117 nM and 166 nM and 133 nM
  kon: 26000 M⁻¹ s⁻¹ and 13000 M⁻¹ s⁻¹ and 16000 M⁻¹ s⁻¹

B3: Horse ACE2 (receptor)
chain: QSTTEDLAKTFLEKFNSEAEELSHQSSLASWSYNTNITDENVQKMNEAGARWSAFYEEQCKLAKTYPLEEIQNLTVKRQLQALQQSGSSVLSADKSKRLNEILNTMSTIYSTGKVCNPSNPQECLLLEPGLDAIMENSKDYNQRLWAWEGWRSEVGKQLRPLYEEYVVLKNEMARANNYEDYGDYWRGDYEAEGPSGYDYSRDQLIEDVERTFAEIKPLYEHLHAYVRAKLMDTYPSHINPTGCLPAHLLGDMWGRFWTNLYSLTVPFGQKPNIDVTDAMVDQSWDAKRIFEEAEKFFVSVGLPNMTQGFWENSMLTEPGDGRKVVCHPTAWDLGKGDFRIKMCTKVTMDDFLTAHHEMGHIQYDMAYAVQPYLLRNGANEGFHEAVGEIMSLSAATPNHLKAIGLLPPDFYEDSETEINFLLKQALTIVGTLPFTYMLEKWRWMVFKGEIPKEEWMKKWWEMKREIVGVVEPVPHDETYCDPAALFHVANDYSFIRYYTRTIYQFQFQEALCQTAKHEGPLHKCDISNSTEAGQKLLQMLSLGKSEPWTLALERIVGVKNMDVRPLLNYFEPLFTWLKDQNKNSFVGWSTNWSPYAD
[7]
  Kd: 38200 nM and 38800 nM and 44600 nM and 40500 nM
  koff: 0.38 s⁻¹ and 0.37 s⁻¹
  kon: 9800 M⁻¹ s⁻¹ and 9600 M⁻¹ s⁻¹ and 8400 M⁻¹ s⁻¹
[8]
  Kd: 7440 nM and 7790 nM and 8720 nM and 7980 nM
  koff: 0.23 s⁻¹ and 0.25 s⁻¹ and 0.26 s⁻¹
  kon: 30000 M⁻¹ s⁻¹ and 32000 M⁻¹ s⁻¹
[9]
  Kd: 455 nM and 445 nM and 459 nM and 453 nM
  koff: 0.02 s⁻¹ and 0.021 s⁻¹
  kon: 45000 M⁻¹ s⁻¹ and 46000 M⁻¹ s⁻¹
